Source: US10544159B2, “Artemisinin derivatives, methods for their preparation and their use as antimalarial agents” (priority 2012, dated 2020)
Where “and” joins values, the source holds several entries; their conditions need not be identical. Identical values can stand only once.

Key:
[1] = Total turnovers and regio-/stereoselectivity of P450 variants in artemisinin hydroxylation (analytical scale); assay type: biochemical; details: for TTN: total turnovers on artemisinin, NADPH cofactor regeneration system, analytical scale; for Product distribution (%) 4: share of 6a-hydroxy-ART (4); for Product distribution (%) 4 / Product distribution (%) 3 / Product distribution (%) 2: 0.5 mM artemisinin, 0.5-1 μM P450, 12 hours; for Product distribution (%) 3: share of 7(R)-hydroxy-ART (3); for Product distribution (%) 2: share of 7(S)-hydroxy-ART (2)
Experimental: Determination of Total Turnovers and Regio- and Stereoselectivity of the P450 Variants.
After 12 hours, 9-fluorenone was added to the mixtures as internal standard. The hydroxylation products were functionalized with benzoyl chloride followed by HPLC analysis. TTN values were calculated based on the total amount of hydroxylated products in the reactions as quantified based on the calibration curves generated using purified 2-4. The enzyme regio- and stereoselectivity was determined based on the area under the curve of the chromatographic peaks corresponding to the hydroxylation products 2, 3, and 4. Mean and standard deviation values reported for P450 variants in Table 1 were calculated from experiments performed at least in triplicate.

[2] = assay type: biochemical; details: 250 μM artemisinin, rates measured over initial 30 seconds
Experimental: Measurement of Product Formation Rates and Coupling Efficiency.
Initial product formation rates were measured from 1 mL-scale reactions containing 250 μM artemisinin, 0.1-0.5 μM purified P450, and 200 μM NADPH in potassium phosphate buffer (50 mM, pH 8.0) at room temperature. After 30 seconds, the samples were extracted with dichloromethane and subjected to benzoyl chloride derivatization followed by HPLC analysis as described above. Cofactor oxidation rate in the presence of artemisinin was measured by monitoring NADPH depletion at 340 nm (ε=6.22 mM^−1 cm^−1) using 0.1 μM purified P450, 250 μM artemisinin, and 200 μM NADPH. Coupling efficiency was calculated from the ratio between the initial product formation rate and the initial NADPH oxidation rate. Reported mean and standard deviation values were calculated from experiments performed at least in triplicate.

[3] = KD for artemisinin binding to P450 variants (heme spin-shift titration); details: binding of artemisinin to 3 μM purified P450, pH 8.0
Experimental: Determination of KD Values for Artemisinin Binding.
Binding experiments were performed using 3 μM purified P450 in potassium phosphate buffer (50 mM, pH 8.0) by titrating increasing amounts of artemisinin (5 μM to 1 mM) from an ethanol stock solution (50 mM). At each concentration, a difference spectrum from 350 to 500 nm was recorded and binding curves were generated by plotting the change in absorbance at 390 nm and 420 nm corresponding to the high-spin and low-spin state of the enzyme, respectively, against the artemisinin concentration. KD values were calculated using Sigma Plot via non-linear fitting of the experimental binding curves to an equation describing a standard 1:1 binding interaction. Reported mean and standard deviation values were calculated from experiments performed at least in triplicate.

Molecule | TTN [1] | (S)-stereoselectivity for C7 hydroxylation ([1]; artemisinin as substrate) [%] | regioselectivity for C7 hydroxylation ([1]; artemisinin as substrate) [%] | Product distribution (%) 4 [1] [%] | Product distribution (%) 3 [1] [%] | Product distribution (%) 2 [1] [%] | Product formation rate [2] | Kd [3] [µM] | regioselectivity toward 6a-hydroxylation ([1]; artemisinin as substrate) [%]
CYP102A1: naturally occurring wild-type cytochrome P450 CYP102A1 from Bacillus megaterium (SEQ ID NO.: 1) (protein, listed as Bacillus megaterium) MTIKEMPQPKTFGELKNLPLLNTDKPVQALMKIADELGEIFKFEAPGRVTRYLSSQRLIKEACDESRFDKNLSQALKFVRDFAGDGLFTSWTHEKNWKKAHNILLPSFSQQAMKGYHAMMVDIAVQLVQKWERLNADEHIEVPEDMTRLTLDTIGLCGFNYRFNSFYRDQPHPFITSMVRALDEAMNKLQRANPDDPAYDENKRQFQEDIKVMNDLVDKIIADRKASGEQSDDLLTHMLNGKDPETGEPLDDENIRYQIITFLIAGHETTSGLLSFALYFLVKNPHVLQKAAEEAARVLVDPVPSYKQVKQLKYVGMVLNEALRLWPTAPAFSLYAKEDTVLGGEYPLEKGDELMVLIPQLHRDKTIWGDDVEEFRPERFENPSAIPQHAFKPFGNGQRACIGQQFALHEATLVLGMMLKHFDFEDHTNYELDIKETLTLKPEGFVVKAKSKKIPLGGIPSPSTEQSAKKVRKKAENAHNTPLLVLYGSNMGTAEGTARDLADIAMSKGFAPQVATLDSHAGNLPREGAVLIVTASYNGHPPDNAKQFVDWLDQASADEVKGVRYSVFGCGDKNWATTYQKVPAFIDETLAAKGAENIADRGEADASDDFEGTYEEWREHMWSDVAAYFNLDIENSEDNKSTLSLQFVDSAADMPLAKMHGAFSTNVVASKELQQPGSARSTRHLEIELPKEASYQEGDHLGVIPRNYEGIVNRVTARFGLDASQQIRLEAEEEKLAHLPLAKTVSVEELLQYVELQDPVTRTQLRAMAAKTVCPPHKVELEALLEKQAYKEQVLAKRLTMLELLEKYPACEMKFSEFIALLPSIRPRYYSISSSPRVDEKQASITVSVVSGEAWSGYGEYKGIASNYLAELQEGDTITCFISTPQSEFTLPKDPETPLIMVGPGTGVAPFRGFVQARKQLKEQGQSLGEAHLYFGCRSPHEDYLYQEELENAQSEGIITLHTAFSRMPNQPKTYVQHVMEQDGKKLIELLDQGAHFYICGDGSQMAPAVEATLMKSYADVHQVSEADARLWLQQLEEKGRYAKDVWAG | < 1 | – | – | – | – | – | – | – | –
FL#41: CYP102A1-derived engineered P450 variant (SEQ ID NO. 4) (protein) MTIKEMPQPKTFGELKNLPLLNTDKPVQALMKIADELGEIFKFEAPGRVTRYLSSQRLIKEACDESRFDKNLSQALKFVRDFAGDGLATSWTHEKNWKKAHNILLPSFSQQAMKGYHAMMVDIAVQLVQKWERLNADEHIEVPEDMTRLTLDTIGLCGFNYRFNSFYRDQPHPFITSMVRALDEAMNKLQRANPDDPAYDENKRQFQEDIKVMNDLVDKIIADRKASGEQSDDLLTHMLNGKDPETGEPLDDENIRYQIITFLIAGHETTSGLLSFALYFLVKNPHVLQKAAEEAARVLVDPVPSYKQVKQLKYVGMVLNEALRLWPTAPAFSLYAKEDTVLGGEYPLEKGDELMVLIPQLHRDKTIWGDDVEEFRPERFENPSAIPQHAFKPFGNGQRACIGQQFALHEATLVLGMMLKHFDFEDHTNYELDIKETLTLKPEGFVVKAKSKKIPLGGIPSPSTEQSAKKVRKKAENAHNTPLLVLYGSNMGTAEGTARDLADIAMSKGFAPQVATLDSHAGNLPREGAVLIVTASYNGHPPDNAKQFVDWLDQASADEVKGVRYSVFGCGDKNWATTYQKVPAFIDETLAAKGAENIADRGEADASDDFEGTYEEWREHMWSDVAAYFNLDIENSEDNKSTLSLQFVDSAADMPLAKMHGAFSTNVVASKELQQPGSARSTRHLEIELPKEASYQEGDHLGVIPRNYEGIVNRVTARFGLDASQQIRLEAEEEKLAHLPLAKTVSVEELLQYVELQDPVTRTQLRAMAAKTVCPPHKVELEALLEKQAYKEQVLAKRLTMLELLEKYPACEMKFSEFIALLPSIRPRYYSISSSPRVDEKQASITVSVVSGEAWSGYGEYKGIASNYLAELQEGDTITCFISTPQSEFTLPKDPETPLIMVGPGTGVAPFRGFVQARKQLKEQGQSLGEAHLYFGCRSPHEDYLYQEELENAQSEGIITLHTAFSRMPNQPKTYVQHVMEQDGKKLIELLDQGAHFYICGDGSQMAPAVEATLMKSYADVHQVSEADARLWLQQLEEKGRYAKDVWAG | about 50 | – | – | – | – | – | – | – | –
IV-H4: FL#62-derived P450 variant (SEQ ID NO. 9), 7(S)-hydroxylating (protein) MTIKEMPQPKTFGELKNLPLLNTDKPVQALMKIADELGEIFKFEAPGRVTRYLSSQRLIKEACDESRFDKNLSQALKFSRDVAGDGLATSWTHEKNWKKAHNILLPSFSQQAMKGYHAMMVDIAVQLVQKWERLNADEHIEVSEDMTRLTLDTIGLCGFNYRFNSFYRDQPHPFIISMVRTLDEVMNKLQRANPDDPVYDENKRQCQEDIKVMNDLVDKIIADRKARGEQSDDLLTQMLNGKDPETGEPLDDGNISYQIITFLIAGHETTSGLLSFALYFLVKNPHVLQKVAEEAARVLVDPVPSYKQVKQLKYVGMVLNEALRLWPTAPAFSLYAKEDTVLGGEYPLEKGDEVMVLIPQLHRDKTIWGDDVEEFRPERFENPSAIPQHAFKPFGNGQRACIGQQFALHEATLVLGMMLKHFDFEDHTNYELDIKETLTLKPEGFVVKAKSKKIPLGGIPSPSTEQSAKKVRKKAENAHNTPLLVLYGSNMGTAEGTARDLADIAMSKGFAPQVATLDSHAGNLPREGAVLIVTASYNGHPPDNAKQFVDWLDQASADEVKGVRYSVFGCGDKNWATTYQKVPAFIDETLAAKGAENIADRGEADASDDFEGTYEEWREHMWSDVAAYFNLDIENSEDNKSTLSLQFVDSAADMPLAKMHGAFSTNVVASKELQQPGSARSTRHLEIELPKEASYQEGDHLGVIPRNYEGIVNRVTARFGLDASQQIRLEAEEEKLAHLPLAKTVSVEELLQYVELQDPVTRTQLRAMAAKTVCPPHKVELEALLEKQAYKEQVLAKRLTMLELLEKYPACEMKFSEFIALLPSIRPRYYSISSSPRVDEKQASITVSVVSGEAWSGYGEYKGIASNYLAELQEGDTITCFISTPQSEFTLPKDPETPLIMVGPGTGVAPFRGFVQARKQLKEQGQSLGEAHLYFGCRSPHEDYLYQEELENAQSEGIITLHTAFSRMPNQPKTYVQHVMEQDGKKLIELLDQGAHFYICGDGSQMAPAVEATLMKSYADVHQVSEADARLWLQQLEEKGRYAKDVWAG | 362 and 362 ± 15 | > 99.9 | > 99.9 | 0 | 0 | 100 | 100 ± 4 Mole product per mole P450 per minute | 53 ± 11 | –
II-E2: FL#62-derived P450 variant (SEQ ID NO. 13) (protein) MTIKEMPQPKTFGELKNLPLLNTDKPVQALMKIADELGEIFKFEAPGRVTRYLSSQRLIKEACDESRFDKNLSQALKFNRDFAGDGLATSWTHEKNWKKAHNILLPSFSQQAMKGYHAMMVDIAVQLVQKWERLNADEHIEVSEDMTRLTLDTIGLCGFNYRFNSFYRDQPHPFIISMVRTLDEVMNKLQRANPDDPVYDENKRQCQEDIKVMNDLVDKIIADRKARGEQSDDLLTQMLNGKDPETGEPLDDGNISYQIITFLIAGHETTSGLLSFALYFLVKNPHVLQKVAEEAARVLVDPVPSYKQVKQLKYVGMVLNEALRLWPTAPAFSLYAKEDTVLGGEYPLEKGDEVMVLIPQLHRDKTIWGDDVEEFRPERFENPSAIPQHAFKPFGNGQRACIGQQFALHEATLVLGMMLKHFDFEDHTNYELDIKETLTLKPEGFVVKAKSKKIPLGGIPSPSTEQSAKKVRKKAENAHNTPLLVLYGSNMGTAEGTARDLADIAMSKGFAPQVATLDSHAGNLPREGAVLIVTASYNGHPPDNAKQFVDWLDQASADEVKGVRYSVFGCGDKNWATTYQKVPAFIDETLAAKGAENIADRGEADASDDFEGTYEEWREHMWSDVAAYFNLDIENSEDNKSTLSLQFVDSAADMPLAKMHGAFSTNVVASKELQQPGSARSTRHLEIELPKEASYQEGDHLGVIPRNYEGIVNRVTARFGLDASQQIRLEAEEEKLAHLPLAKTVSVEELLQYVELQDPVTRTQLRAMAAKTVCPPHKVELEALLEKQAYKEQVLAKRLTMLELLEKYPACEMKFSEFIALLPSIRPRYYSISSSPRVDEKQASITVSVVSGEAWSGYGEYKGIASNYLAELQEGDTITCFISTPQSEFTLPKDPETPLIMVGPGTGVAPFRGFVQARKQLKEQGQSLGEAHLYFGCRSPHEDYLYQEELENAQSEGIITLHTAFSRMPNQPKTYVQHVMEQDGKKLIELLDQGAHFYICGDGSQMAPAVEATLMKSYADVHQVSEADARLWLQQLEEKGRYAKDVWAG | 393 and 393 ± 25 | – | – | 48 | 30 | 22 | 148 ± 3 Mole product per mole P450 per minute | 164 ± 18 | 48
